Consider 22 sequences from the DeepSol protein solubility set.

The nature of the data set: soluble on expression in E. coli; label from the status in PepcDB or PDB records.
In the case of “MAFLLKLEPDMQGKVDLFRARIAQEAEDLVSTFFPQKVLELNSRVQELRLQDLSRIHSVPTSEPLATPGNKGDGPNQNLPVLLTQFSIKVPALLGSEGQLLRSNQHLVELTEWVKPEIKLLREKCNTVHM”, the “soluble on expression in E. coli” value is given as “not soluble”. As to “MGSDKIHHHHHHMKAVYPGSFDPITLGHVDIIKRALSIFDELVVLVTENPRKKCMFTLEERKKLIEEVLSDLDGVKVDVHHGLLVDYLKKHGIKVLVRGLRAVTDYEYELQMALANKKLYSDLETVFLIASEKFSFISSSLVKEVALYGGDVTEWVPPEVARALNEKLKEGKR”, the “soluble on expression in E. coli” value is on record as “soluble”.

In the case of “MDAVDATMEKLRAQCLSRGASGIQGLARFFRQLDRDGSRSLDADEFRQGLAKLGLVLDQAEAEGVCRKWDRNGSGTLDLEEFLRALRPPMSQAREAVIAAAFAKLDRSGDGVVTVDDLRGVYSGRAHPKVRSGEWTEDEVLRRFLDNFDSSEKDGQVTLAEFQDYYSGVSASMNTDEEFVAMMTSAWQL”, the “soluble on expression in E. coli” value is on record as “not soluble”.

Turning to “GSSGSSGMPMTLGYWDIRGLAHAIRLFLEYTDSSYEEKRYTMGDAPDYDQSQWLNEKFKLGLDFPNLPYLIDGSHKITQSNAILRYLGRKHNLCGETEEERIRVDILENQLMDNRMVLARLCYNADFEKLKPGYLEQLPGMMRLYSEFLGKRPWFAGDKITFVDFIAYDVLERNQVFEAKCLDAFPNLKDFIARFEGLKKISDYMKTSRFLPRPMFTKMATWGSNSGPSSG”, the “soluble on expression in E. coli” value is “soluble”.

Take “MTMRNFDLSPLMRQWIGFDKLANALQNAGESQSFPPYNIEKSDDNHYRITLALAGFRQEDLEIQLEGTRLSVKGTPEQPKEEKKWLHQGLMNQPFSLSFTLAENMEVSGATFVNGLLHIDLIRNEPEPIAAQRIAISERPALNS”: the “soluble on expression in E. coli” value is “not soluble”. Take “MSQRPTSSHDSSAPHHIPVDDCLTYDTGYRPNLPGQRTWWVFCPVTGAFDNSYALLGAMIECVARGQATLAPAWDRTFAGGIWYDFDCGADVLDGRLLMDMAVDDMQRRIERYMSTNDGQMGCKPALGFR”: the “soluble on expression in E. coli” value is listed as “not soluble”.

With “QQFPNECQLDQLNALEPSHVLKAEAGRIEVWDHHAPQLRCSGVSFVRYIIESKGLYLPSFFSTAKLSFVAKGEGLMGRVVPGCAETFQDSSVFQPGGGSPFGEGQGQGQQGQGQGHQGQGQGQQGQQGQQGQQSQGQGFRDMHQKVEHIRTGDTIATHPGVAQWFYNDGNQPLVIVSVLDLASHQNQLDRNPRPFYLAGNNPQGQVWIEGREQQPQKNILNGFTPEVLAKAFKIDVRTAQQLQNQQDNRGNIIRVQGPFSVIRPPLRSQRPQEEVNGLEETICSARCTDNLDDPSNADVYKPQLGYISTLNSYDLPILRFLRLSALRGSIRQNAMVLPQWNANANAVLYVTDGEAHVQVVNDNGDRVFDGQVSQGQLLSIPQGFSVVKRATSEQFRWIEFKTNANAQINTLAGRTSVLRGLPLEVISNGYQISLEEARRVKFNTIETTLTHSSGPASYGGPRKADA”, the “soluble on expression in E. coli” value is “soluble”. For “GSHMAPGFTISFVNKTIIVTGGNRGIGLAFTRAVAAAGANVAVIYRSAADAVEVTEKVGKEFGVKTKAYQCDVSNTDIVTKTIQQIDADLGPISGLIANAGVSVVKPATELTHEDFAFVYDVNVFGVFNTCRAVAKLWLQKQQKGSIVVTSSMSSQIINQSSLNGSLTQVFYNSSKAACSNLVKGLAAEWASAGIRVNALSPGYVNTDQTAHMDKKIRDHQASNIPLNRFAQPEEMTGQAILLLSDHATYMTGGEYFIDGGQLIW” the value was “soluble”; for “MAHHHHHHMQSVLPYTTNPAQIGSIEKLKLINPSSAAATGPYVNVRDPKLVVGGLLHNWDAEAAHALLNAPKSVQTWDLSWTEDETNWEERVHRCTYPEEVEDLLPAKWIGYRVQSDVDETLARVCKLCTALVDRLVSLSQGNNANVSTAKWRQRQALYDRLGAVMELLEASVGEAIPILKLKDPEFIQNCWRQMQDDERVEIISVLGTKEYD”, “soluble”; for “MERVYRTDLKLLRYFLAVAEELHFGRAAARLNMSQPPLSIHIKELENQLGTQLFIRHSRSVVLTHAGKILMEESRRLLVNANNVLARIEQIGRGEAGRIELGVVGTAMWGRMRPVMRRFLRENPNVDVLFREKMPAMQMALLERRELDAGIWRMATEPPTGFTSLRLHESAFLVAMPEEHHLSSFSTVPLEALRDEYFVTMPPVYTDWDFLQRVCQQVGFSPVVIREVNEPQTVLAMVSMGIGITLIADSYAQMNWPGVIFRPLKQRIPADLYIVYETQQVTPAMVKLLAALTQ”, “soluble”. For “MAHHHHHHMRSGPCPLPPAVAARSLLSPFGIGVSKRLALVGSGNSITALLVKENVPAGTPLLLAPDAALLTCQGALDADVDGLVPPPAEMLELLKRDTAQLDHVYLAYYLSLRCFTNTEDWFSSQIHRFKDSGSASQEDTASSRIWERFAQKYVTAPAPVFMAALQYVWESCFRKPATEADSASAPLPAALAVAPVVDVASQSRNATNSALTATTAKALKETHLHSDITGARQALLAKNDAYVYWVLTAITDIPVGGEVSVSSESVL”, the “soluble on expression in E. coli” value is listed as “soluble”.

Regarding “MTECLQTKKSNCKNCYKCIRHCPVKSLKFTDGQAHIVRDECVLCGECYVVCPQNAKQIRSDVEKAKQLVLKYDVYASIAPSFVAWFHNKSIHDMEQALIKLGFKGADETAKGAYIVKKQYEKMIEEKKSKIIISSCCHTVNTLIQRHYTGAIQYLADVVSPMLAHAQMLKKEHKGAKVVFIGPCISKKDEAEKYKGYVELVLTFDELDEWLKSENITIESNRGSSKEGRTRSFPVSGGIISSMDKDLGYHYMVVDGMENCINALENIERGEIDNCFIEMSACRGSCINGPPARRKSNNIVGAILAVNKNTGAKDFSVPMPEPEKLKKEFRFEGVHKIMPGGTAIEEILKKMGKTSIEHELNCGSCGYDTCRDKAVAVLNGKADLTMCLPYLKEKAESFSDAIIKNTPNGVIVLNEDLEIQQINNSAKRILNLSPSTDLLGSPVSRILDPIDYILALREGKNCYYKRKYFAEYKKYVDETIIYDKEYHVIIIIMRDVTEEEKIKALKNKQSEAAIEIADKVVEKQMRVVQEIALLLGETAAETKIALTKLKETMEDE”, the “soluble on expression in E. coli” value was “not soluble”. With “MGSDKIHHHHHHMNADTPLQLLGGLTAAEFLRDYWQRKPLLVRQAIPDFESPLSADELAGLSLEESVESRIVLEHGKTPWEMRRGPFQEEDYQHLPEQDWTLLVQAVDQFVPEVAQLLEQFRFLPSWRIDDVMISYAAPGGGVGPHFDNYDVFLLQGHGRRRWKVGQMCSSDSPLREHADLRILADFEQSDEWVLEPGDMLYLPPRLAHYGIAEDECMTYSIGFRAPSAAEVLTHFTDFLGQFLSDEERYTDAGLQPVGDDPHQIQRDALERLQGLIQEHMSDERLLLTWFGQFMTEPRYPELVAGEEIPEEELFGALEDGALLVRNPSARLAWSEIDIGLVLFASGQSVLLPGQLKELLKLVCSADALHLENLGQWLADDDARKLLAELVKQGSLEFADE”, the “soluble on expression in E. coli” value is “not soluble”. For “SFSWLLRLCQKENGDEGDTRPTKKEEGILSHEKGRRKSFWRRHRSARNTSTQNSNITNQISNINKVRELKLDMRKISNDMEEMCGILNLYMYEDLNYRMNTEFNIIKSQHEKTMLDMDKMTQSIIASMKFSEELLKDNYSYSIKQKRGSVRRPARTCVSQVPRSSRCDHEIPQISDPDGSLHSSWDLGSIVSSEPD” the value was “soluble”; for “MKLSKRQEQIIAVVKEHQPVSGERISDILAVSRATLRSDLSFLTLSGILKASPKVGYTYESDNMEAFFFFDVFQTKVQEIMSPPLMVAQDTSIRDAITNLFMYDVGSLYVMDEAKELLGVLSRKDLLRASLNTNIDGTPVAVCMTRVPHVKTCTPEFTILEAADTLQKYEVDSLPVVEKENPKKVIGKITKTKILTYITQQAKEAAQNR”, “not soluble”. Regarding “MRLILPVGLIATTLAIAPVRFDREKVFRVKPQDEKQADIIKDLAKTNELDFWYPGATHHVAAKMMVDFRVSEKESQAIQSALDQNKMHYEILIHDLQEEIEKQFDVKEDIPGRHSYAKYNNWEKIVAWTEKMMDKYPEMVSRIKIGSTVEDNPLYVLKIGEKNERRKAIFMDCGIHAREWVSPAFCQWFVYQATKTYGRNKIMTKLLDRMNFYILPVFNVDGYIWSWTKNRMWRKNRSKNQNSKCIGTDLNRNFNASWNSIPNTNDPCADNYRGSAPESEKETKAVTNFIRSHLNEIKVYITFHSYSQMLLFPYGYTSKLPPNHEDLAKVAKIGTDVLSTRYETRYIYGPIESTIYPISGSSLDWAYDLGIKHTFAFELRDKGKFGFLLPESRIKPTCRETMLAVKFIAKYILKHTS”, the “soluble on expression in E. coli” value is reported as “soluble”.

Take “MHIESPIKRRQSTRIYVGNVPIGDGAPIAVQSMTNTRTTDVDATVAQIKSLEKVGADIVRVSVPTMDAAEAFKVIKQQVSVPLVADIHFDYRIALQVAEYGVDCLRINPGNIGNEQRIRSVVDCARDKNIPIRIGVNGGSLEKDIQAKYKEPTAEALLESAMRHVDILDRLNFDQFKVSVKASDVFLAVDSYRLLAKQIAQPLHLGITEAGGARAGSVKSAVGLGMLLSEGIGDTLRISLAADPVEEIKVGFDILKSLRIRSRGINFIACPTCSRQEFDVIATVNELEQRLEDLITPMDVSLIGCVVNGPGEAEVSHMGIAGSNRKSAFYEDGVRQKERFDNDNIVDQLEAKIRAKAATLSKENQIDINQID”: the “soluble on expression in E. coli” value is reported as “not soluble”. As to “MVDRFGDVLREWRQLRRMSQMDLGLSAGVSPRHISFLESGRALPSRGMVLRLCDELEVPGGARNRWLTSAGLAPAYHSRNGDAPEMAPLTQAVDWMLSRHAPYPAMAVDRHWRLKTMNRPARAMFAATGLGAGDGLIDALLDNPALAAALENRDEVERLSLTRLRTELAHFGRDPVLEQAVARLAERVARQPGAADAPMPAVIPARYRLGEAVLSFFTTITQFGATGDIAMSELRIEMFFPADDATRQMVEALWGNATPGN”, the “soluble on expression in E. coli” value is on record as “not soluble”.

In the case of “MGVTLAKGGNVSLSKAAPNLTQVMIGLGWDARSTTGAPFDLDASALLCREGRVLGDEWFVFYNQLKSPDGSVEHTGDNLTGEGEGDDESILVDLSTVPAQVDKIVFPVSIHEADNRGQTFGQVSNAFIRVVNQADGQELARYDLSEDASTETAMIFGEVYRYGGEWKFRAVGQGYASGLRGIVQDFGVSVS”, the “soluble on expression in E. coli” value is recorded as “not soluble”. In the case of “GAMGDPGLVSAYGAGLEGGVTGNPAEFVVNTSNAGAGALSVTIDGPSKVKMDCQECPEGYRVTYTPMAPGSYLISIKYGGPYHIGGSPFKAKVTGPRLV”, the “soluble on expression in E. coli” value is “soluble”. For “MGSDKIHHHHHHMTQHPFISRVAVRNYKSIGYCDVNLRPLTYLVGHNGAGKSNFMDALHFVCDALSYSLDSALNERGGINEVRRRSGGHPTHFALRVEFVMQSGQAGRYGFVIGALKNGGYEVQREECVVAGIGKGPFFRIEKGKLRDSSETTFPSVTADRLALVAASGLTAFRPVFDALTAMGFYNLNPKLMRELQKPQDGRLLRPAGENIASVIGHLEKVAPAQMALIQEYLHSVAPMVHGVERKPIGPMETLEFRQDMAGSKHPWRFLAQNMSDGTLRALGVLSALLQGNVDYSPTLIGIEEPETALHPAASAALREALVRASETTQVLVTSHSPDLLDDHSIDADAVLAVVSEAGETKVAPLDEGSRQVMRDHLFSAGELLRMNQLAPDRASLEQQDKAASGDLFGETESV” the value was “not soluble”; for “ADKAASGVLTKLPQKQIQEMKEAFSMIDVDRDGFVSKEDIKAISEQLGRAPDDKELTAMLKEAPGPLNFTMFLSIFSDKLSGTDSEETIRNAFAMFDEQETKKLNIEYIKDLLENMGDNFNKDEMRMTFKEAPVEGGKFDYVKFTAMIKGSGEEEA”, “soluble”.
